Reference: paper PMC8588562, “Layer-by-Layer Encapsulation of Herbicide-Degrading Bacteria for Improved Surface Properties and Compatibility in Soils” (Polymers, 2021)

Test system: CCNc1nc(Cl)nc(NC(C)C)n1
Test: cells, lysate or membranes
Settings: apparent, whole uncoated E. coli cells (free cells), PBS (0.1 M, pH 7.4), room temperature, 20 min, 2.5 mg/mL cells, ATZ 1-20 mg/L

“atrazine chlorohydrolase (AtzA) (Pseudomonas sp. ADP)” was tested, and the Km was 89.12 ± 29.48 µM.
